{"source": "paper PMC6256756", "proteins": {"B1": {"name": "FtsZ (BcFtsZ) (Burkholderia cenocepacia J2315) (protein)", "chain": "MEFEMLETETNGTIIKVVGVGGAGGNAVQHMINRGVQGVDFIVMNTDAQALSRSRASSVIQLGNTGLGAGAKPEMGRAAAEEARERIADALRGAHMVFITAGMGGGTGTGAAPVVAQIAKEMGILTVGVVSKPFEFEGGKRMRVAEAGSQQLEDHVDSLIVVLNDKLFDVMGDDAEMDKCFQCADDVLNNAVAGIAEIINVDGLVNVDFEDVKTVMGEQGKAMMGTATVAGVDRARLAAEQAVASPLLEGVDLSGARGVLVNITSSRSLRLSETREVMNTIKSYAAEDATVIFGAVYDDAMGDALRVTVVATGLGRAAKKQQSAPMTLLRTGTDNQPVSAVSHGYAPAQHVSTADYGALDTPAVWRNSRETAASHVQALQEKGVDTYDIPAFLRKQAD", "notes": "recombinant BcFtsZ (BCAL3457) from pET-28a, N-terminal histidine tag removed with PreScission protease"}}, "substrate": "Nc1nc2c(ncn2[C@@H]2O[C@H](COP(=O)(O)OP(=O)(O)OP(=O)(O)O)[C@@H](O)[C@H]2O)c(=O)[nH]1", "test": "steady-state kinetics, PK/LDH coupled GTPase assay (Km)", "assay_type": "biochemical, Burkholderia cenocepacia", "settings": "Mg2+ GTP binding site"}
{"protein": "B1", "values": [{"measurement": "Km", "result": "6.4 ± 0.8", "unit": "µM"}]}
